Test [1] deals with 2:1:1 Vps75–Rtt109–(H3-H4) complex formed from co-expressed Vps75–Rtt109 (Saccharomyces cerevisiae | Xenopus laevis) (UniProt P53853). The test is described as follows: SEC-MALS; 20 μM co-expressed 2:1 Vps75–Rtt109 with 20 or 40 μM H3-H4 or H3DM-H4; Superdex 200 Increase 10/300 GL; 20 mM Tris–HCl pH 7.5, 300 mM NaCl, 0.5 mM TCEP. In general terms: In gel filtration, larger molecules generally elute earlier.

Test [2] addresses co-expressed and co-purified 2:1 Vps75–Rtt109 complex (Saccharomyces cerevisiae) (UniProt P53853). The test is described as above.
For test [3], the target named is Vps75–Rtt109 complex reconstituted at 2:1 from individually purified proteins (Saccharomyces cerevisiae) (UniProt P53853). Briefly: AUC; sedimentation velocity; 0.5 or 1 equivalent of H3-H4 or H3DM-H4 titrated against Vps75–Rtt109 reconstituted at 2:2 or 2:1 (relative to 7.5 μM Vps75), with 2:2 mixes of Vps75 and histones for reference; 20 mM Tris pH 7.5, 150 mM NaCl, 0.5 mM TCEP, 20°C.

Test [4] deals with Vps75–Rtt109 complex reconstituted at 2:2 from individually purified proteins (Saccharomyces cerevisiae) (UniProt P53853). The description is as above. Particulars: scale: H3-H4 per Vps75 dimer.
Test [5] has as its target 2:1:1 Vps75–Rtt109–(H3-H4) complex, reconstituted from individually purified Vps75 and Rtt109 (Saccharomyces cerevisiae | Xenopus laevis) (UniProt P53853). The test is described as above.

“2:1:1 Vps75–Rtt109–(H3-H4) complex formed from co-expressed Vps75–Rtt109 (from UniProt P53853 1-264; Q07794 1-436; P84233 1-136; P62799 1-103)” showed a stoichiometry N (copies of the 2:1:1 sub-complex (4:2:2)) in test [1] of 2.

As to “Xenopus laevis H3DM-H4 (H3 dimerization mutant C110E, L126A, I130A with H4), refolded (from UniProt P62799 1-103) (complex)”, the stoichiometry N (H3DM-H4 per 2:1 Vps75–Rtt109 (2:1:1)) in test [2] was determined as 1. Moreover, the stoichiometry N (H3DM-H4 per Vps75 dimer (printed 2:2:1)) in test [3] was found to be 1.

“Xenopus laevis histones H3-H4 (wild type), refolded (from UniProt P84233 1-136; P62799 1-103) (complex)” registered a stoichiometry N (H3-H4 per 2:1 Vps75–Rtt109 (2:1:1)) in test [2] of 1. For the same substance, in test [4], the stoichiometry N – broadly, the number of molecules, sites or subunits per partner or assembly – amounted to 1.

As for “2:1:1 Vps75–Rtt109–(H3-H4) complex, reconstituted from individually purified Vps75 and Rtt109 (from UniProt P53853 1-264; Q07794 1-436; P84233 1-136; P62799 1-103)”, the stoichiometry N (copies of the 2:1:1 complex (4:2:2)) in test [5] came out at 2.

(Values after PMC7494816.)
